From patent publication US20110305703A1, “ISOLATED VEGF-C AND VEGF-D PEPTIDES AND USES THEREOF” (Vegenics Pty Limited, priority 2008, published 2011)
Entries after “also recorded” stand apart in the source; their conditions may differ. No end group written: not given here. *: point of attachment. Biotin = O=C1N[C@H]2[C@H](CS[C@H]2CCCCC(=O)*)N1

tested on: VEGF-D neutralizing monoclonal antibody mAb 4A5 (VDnmAb); assay: ELISA of biotinylated synthetic peptides on streptavidin plates for VDnmAb binding; conditions: 1st peptide library; 10 pmol peptide; VDnmAb 2 μg/ml; signal more than two-fold greater than background considered positive
Source text: Peptides. A series of synthetic 15-mer peptides (peptides 1 to 35, SEQ ID NOs: 4 to 38 in FIG. 4B, which overlap each other by 12 amino acids) were synthesized (Mimotopes Pty Ltd, Melbourne, Australia). The peptides encompassed the VHD of human VEGF-D (SEQ ID NO: 3, FIG. 4A). Peptide 36 (SEQ ID NO: 39) represented an artificial sequence including a FLAG tag as a positive control for a commercial anti-FLAG mAb (M2; Sigma) that was used as control for non-specific binding to peptides 1 to 35 (SEQ ID NOs: 4 to 38). Biotin was included at the N-terminal of each peptide during synthesis, except that peptide 1 (SEQ ID NO: 4, representing the N-terminal of the VHD) has biotin at the C-terminal. The four-amino acid linker “SGSG” was introduced between the N-terminal of each peptide sequence and biotin to provide more flexibility to peptides after immobilization on streptavidin plates, except peptide 1 (SEQ ID NO: 4) that included the C-terminal linker “GSG”.
ELISA. Reacti-Bind streptavidin high-binding-capacity coated plates (Pierce) were coated with 10 pmol of each peptide in PBS, blocked with 5% milk in PBS-0.1% Tween 20, and incubated with 100 μl of VEGF-D neutralizing monoclonal antibody mAb 4A5 (referred to herein as VDnmAb) or M2 at 2 μg/ml for 1 h at room temperature. Bound mAb was detected with goat anti-mouse IgG coupled with HRP. ABTS was used as the substrate, and the absorbance was read at 405 nm in a multiwell plate reader.
In this 2nd peptide library, biotin was included at the N-terminal of each peptide, and the four-amino acid linker “SGSG” was introduced between each peptide sequence and the biotin residue to provide more flexibility to peptides after immobilization on streptavidin plates. ELISA-based analysis of the 2nd peptide library was carried out as for the 1st peptide library.
Peptide 67 (SEQ ID NO: 141, the same as peptide 36, SEQ ID NO: 39 from the 1st library) and peptide 68 (SEQ ID NO: 142), both containing the FLAG tag, were used as controls. In this 3rd peptide library, biotin was included at the N-terminal of each peptide except peptides 6, 12 and 14 (SEQ ID NOs: 80, 86 and 88) which have C-terminal biotin residues. To provide more flexibility to peptides after immobilization on streptavidin plates, an amino acid linker was introduced between biotin residues and the peptide sequence: “SGSG” for N-terminal biotin; “SGS” for C-terminal biotin. ELISA-based analysis of the 3rd peptide library was carried out as for the 1st peptide library, described in Example 1.

| Molecule | VDnmAb binding to peptide (ELISA signal, absorbance at 405 nm) |
| --- | --- |
| peptide 16 (SEQ ID NO: 19): 1st library 15-mer which lacks the three C-terminal residues of peptide 17, SEQ ID NO: 20 (SGSGPPCVNVFRCGGCCNE) | does not bind VDnmAb |
| VNVFRCGGCCNEESL (Biotin-SGSGVNVFRCGGCCNEESL; cysteine pairing not given here) [peptide 17 (SEQ ID NO: 20), residues 137 to 151 of human VEGF-D, N-terminal biotin and SGSG linker] | the strongest |

same assay, conditions: 2nd peptide library; 10 pmol peptide; VDnmAb 2 μg/ml; signal more than two-fold greater than background considered positive

| Molecule | VDnmAb binding to peptide (ELISA signal, absorbance at 405 nm) |
| --- | --- |
| VNVFRCGGCCNEESL (Biotin-SGSGVNVFRCGGCCNEESL; cysteine pairing not given here) [peptide 17 (SEQ ID NO: 20), residues 137 to 151 of human VEGF-D, N-terminal biotin and SGSG linker] | bound to VDnmAb |
| VTVQRCGGCCPDDGL (Biotin-SGSGVTVQRCGGCCPDDGL; not fully specified; cysteine pairing not given here) [peptide 34 (SEQ ID NO: 73), residues 73 to 87 of VEGF-B, biotin and linker] | did not bind the antibody |
| peptide 23 (SEQ ID NO: 62): 2nd library: single mutation of cysteine in the binding region, C145S (SGSGVNVFRCGGSCNEESL) | very minor or no effect on VDnmAb binding |

tested on: VDnmAb; assay: Western blot of conditioned media containing VEGF-DΔNΔC variants probed with VDnmAb; assay type: binding; conditions: conditioned media of 293-F cells; in comparison to VEGF-DΔNΔC
Source text: Site-directed mutagenesis. DNA encoding VEGF-DΔNΔC, a form of mature human VEGF-D tagged at the N-terminus with the FLAG octapeptide (FIG. 11; SEQ ID NO: 145), was subjected to site-directed mutagenesis by PCR to generate VEGF-DΔNΔC variants. Mutations were introduced by amplification with the following primers: N147Q with 5'-[…] NO: 146) and 5'-[…] with 5'-[…] NO: 148) and 5'-[…] with 5'-[…] NO: 150) and 5'-[…] with 5'-[…] NO: 152) and 5'-[…] with 5'-[…] NO: 154) and 5'-[…] with 5'-[…] NO: 156) and 5'-[…] with 5'-[…] NO: 158) and 5'-[…] NO: 159) (FIG. 12). The desired mutations, as well as the absence of any unwanted mutations, in the resulting DNA fragments were confirmed by nucleotide sequencing. Expression of VEGF-DΔNΔC variants. Plasmids containing DNA encoding VEGF-DΔNΔC or its variants were used for transient transfection of 293-F cells with the FreeStyle MAX 293 Expression System according to manufacturer's instructions (Invitrogen). Cells expressing each variant were cultured in serum-free medium, and 30 ml of conditioned media was collected 7 days post-transfection and used for analysis. Western Blot Analysis. Conditioned media containing different variants of VEGF-DΔNΔC were resolved by SDS-PAGE, transferred to nitrocellulose membrane, probed with M2 anti-FLAG or VDnmAb antibodies labeled with IRDye 800CW according to manufacturer's instructions (LI-COR), and detected with an Odyssey Infrared Imaging System (LI-COR).

| Molecule | VDnmAb binding to VEGF-DΔNΔC variant in Western blot |
| --- | --- |
| S150G/L151V: VEGF-DΔNΔC variant with double mutation S150G/L151V (mouse residues) (protein) MYREWVVVNVFMMLYVQLVQGSSNEHGPVKRSSQSTLERSEQQIRAASSLEELLRITHSEDWKLWRCRLRLKSFTSMDSRSASHRSTRFAATFYDIETLKVIDEEWQRTQCSPRETCVEVASELGKSTNTFFKPPCVNVFRCGGCCNEEGVICMNTSTSYISKQLFEISVPLTSVPELVPVKVANHTGCKCLPTAPRHPYSIIRRSIQIPEEDRCSHSKKLCPIDMLWDSNKCKCVLQEENPLAGTEDHSHLQEPALCGPHMMFDEDRCECVCKTPCPKDLIQHPKNCSCFECKESLETCCQKHKLFHPDTCSCEDRCPFHTRPCASGKTACAKHCRFPKEKRAAQGPHSRKNP | complete loss of VDnmAb binding |
| E148D: VEGF-DΔNΔC variant with mutation E148D (protein) DYKDDDDKFYDIETLKVIDEEWQRTQCSPRETCVEVASELGKSTNTFFKPPCVNVFRCGGCCNDESLICMNTSTSYISKQLFEISVPLTSVPELVPVKVANHTGCKCLPTAPRHPYS | complete loss of VDnmAb binding |
| E148S and S150G double mutation: VEGF-DΔNΔC variant containing both E148S and S150G (VEGF-C residues) (protein) DYKDDDDKFYDIETLKVIDEEWQRTQCSPRETCVEVASELGKSTNTFFKPPCVNVFRCGGCCNSEGLICMNTSTSYISKQLFEISVPLTSVPELVPVKVANHTGCKCLPTAPRHPYS | complete loss of VDnmAb binding |
| N147Q: VEGF-DΔNΔC variant with mutation N147Q (protein) DYKDDDDKFYDIETLKVIDEEWQRTQCSPRETCVEVASELGKSTNTFFKPPCVNVFRCGGCCQEESLICMNTSTSYISKQLFEISVPLTSVPELVPVKVANHTGCKCLPTAPRHPYS | significant decrease in the amount of VDnmAb bound |
| E149D: VEGF-DΔNΔC variant with mutation E149D (protein) DYKDDDDKFYDIETLKVIDEEWQRTQCSPRETCVEVASELGKSTNTFFKPPCVNVFRCGGCCNEDSLICMNTSTSYISKQLFEISVPLTSVPELVPVKVANHTGCKCLPTAPRHPYS | dramatic decrease in the amount of VDnmAb bound |
| S150G: VEGF-DΔNΔC variant with mutation S150G (protein) DYKDDDDKFYDIETLKVIDEEWQRTQCSPRETCVEVASELGKSTNTFFKPPCVNVFRCGGCCNEEGLICMNTSTSYISKQLFEISVPLTSVPELVPVKVANHTGCKCLPTAPRHPYS | significantly affected VDnmAb binding; also recorded: significantly affected, but did not eliminate, binding |
| S150T: VEGF-DΔNΔC variant with mutation S150T (protein) DYKDDDDKFYDIETLKVIDEEWQRTQCSPRETCVEVASELGKSTNTFFKPPCVNVFRCGGCCNEETLICMNTSTSYISKQLFEISVPLTSVPELVPVKVANHTGCKCLPTAPRHPYS | significant decrease in the amount of VDnmAb bound |
| E148S: VEGF-DΔNΔC variant with mutation E148S (protein) DYKDDDDKFYDIETLKVIDEEWQRTQCSPRETCVEVASELGKSTNTFFKPPCVNVFRCGGCCNSESLICMNTSTSYISKQLFEISVPLTSVPELVPVKVANHTGCKCLPTAPRHPYS | complete loss of VDnmAb binding |
| L151V: VEGF-DΔNΔC variant with mutation L151V (protein) DYKDDDDKFYDIETLKVIDEEWQRTQCSPRETCVEVASELGKSTNTFFKPPCVNVFRCGGCCNEESVICMNTSTSYISKQLFEISVPLTSVPELVPVKVANHTGCKCLPTAPRHPYS | dramatic decrease in the amount of VDnmAb bound; also recorded: significantly affected VDnmAb binding |
